# According to PMC4806843, “Structural and Functional Analysis of Calcium Ion Mediated Binding of 5-Lipoxygenase to Nanodiscs” (PLoS ONE, 2016):
# B1: human 5-lipoxygenase (enzyme, UniProt P09917 1-674, looked up)
# chain: MPSYTVTVATGSQWFAGTDDYIYLSLVGSAGCSEKHLLDKPFYNDFERGAVDSYDVTVDEELGEIQLVRIEKRKYWLNDDWYLKYITLKTPHGDYIEFPCYRWITGDVEVVLRDGRAKLARDDQIHILKQHRRKELETRQKQYRWMEWNPGFPLSIDAKCHKDLPRDIQFDSEKGVDFVLNYSKAMENLFINRFMHMFQSSWNDFADFEKIFVKISNTISERVMNHWQEDLMFGYQFLNGCNPVLIRRCTELPEKLPVTTEMVECSLERQLSLEQEVQQGNIFIVDFELLDGIDANKTDPCTLQFLAAPICLLYKNLANKIVPIAIQLNQIPGDENPIFLPSDAKYDWLLAKIWVRSSDFHVHQTITHLLRTHLVSEVFGIAMYRQLPAVHPIFKLLVAHVRFTIAINTKAREQLICECGLFDKANATGGGGHVQMVQRAMKDLTYASLCFPEAIKARGMESKEDIPYYFYRDDGLLVWEAIRTFTAEVVDIYYEGDQVVEEDPELQDFVNDVYVYGMRGRKSSGFPKSVKSREQLSEYLTVVIFTASAQHAAVNFGQYDWCSWIPNAPPTMRAPPPTAKGVVTIEQIVDTLPDRGRSCWHLGAVWALSQFQENELFLGMYPEEHFIEKPVKEAMARFRKNLEAIVSVIAERNKKKQLPYYYLSPDRIPNSVAI
# notes: 5-lipoxygenase (5LO), human, recombinant from pT3-5LO; 78 kDa; The preparation holds monomer and dimer, which were separated by SEC; also called 5LO; monomeric 5LO; source: E. coli BL21-(DE3) transformed with pT3-5LO, purified (ammonium sulfate precipitation, ATP agarose, gel filtration)
# Target: the molecule itself
# Experiment: SEC; size exclusion chromatography of the purified 5LO preparation; standards aldolase (158 kDa) and conalbumin (75 kDa); two peaks, dimer and monomer
protein,measurement,value
B1,stoichiometry N,2
